These results are taken from US20200181257A1 (Chugai, published 2020).

Read-outs that look alike come from different tables or passages of the source.

What all share (assay): SPR, antibody captured on Protein A
In general terms: In SPR one partner is held on a chip, and binding of the other changes the refractive index at the surface.

The target in assay [1] is T1, human Fcγ receptor hFcgRIIIa (V) (human, UniProt P08637 17-208).
T1 construct: also called FcγRIIIa allotype V158; FcγIIIA
On the procedure: (§1) The CH2 domain, which was modified in this examination, is known to be involved in interaction with several human Fcγ receptors (hereinafter denoted as hFcgRs) which affect effector functions. Therefore, the binding of TS1 and TS19 prepared by using the H chain of anti-IL6R produced in Example 2 to hFcgRs was measured, according to the method described in Reference Example 3.
(§2) Interactions between antibodies and hFcgRs (hFcgRIa, hFcgRIIa(R), hFcgRIIa(H), hFcgRIIb, hFcgRIIIa(F), and hFcgRIIIa(V)) were analyzed using Biacore T100 (GE Healthcare). HBS-EP+(GE Healthcare) was used for the running buffer, and the measurement temperature was set at 25° C. Protein A (Invitrogen) was immobilized by the amino coupling method, and an antibody of interest was captured thereon. Then, hFcγR solutions diluted using the running buffer were injected to allow interaction with the captured antibody at a flow rate of 30 μL/min for five minutes for hFcγRIa, and at a flow rate of 5 μL/min for one minute for the other hFcγRs. […] Since the hFcγR binding level depends on the amount of captured antibodies, the FcgR-binding levels were corrected so that the capture level of each antibody would be 200 RU (resonance unit) for hFcgRIa and 1000 RU (resonance unit) for the other hFcgRs. The captured antibodies were washed by allowing 10 mM glycine-HCl (pH 1.5) to react for 30 seconds at a flow rate of 30 μL/min to recycle the chip for reuse.

Assay [2] has as its target T2, human Fcγ receptor hFcgRIIa (H) (human, UniProt P12318 36-217).
T2 construct: also called FcγRIIa (type H); FcγIIA
T2 sequence: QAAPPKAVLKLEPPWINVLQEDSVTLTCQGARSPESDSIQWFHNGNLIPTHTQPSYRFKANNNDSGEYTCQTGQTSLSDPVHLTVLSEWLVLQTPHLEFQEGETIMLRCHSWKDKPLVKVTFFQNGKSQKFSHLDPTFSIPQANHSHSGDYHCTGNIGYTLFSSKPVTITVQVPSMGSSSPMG
On the procedure: as §1, §2

Assay [3] deals with T3, human Fcγ receptor hFcgRIa (human, UniProt P12314 16-292, limits assumed).
T3 construct: Construct used in the SPR assay is not described; also called hFcγRIa; FcγI
On the procedure: as §1, §2

Assay [4] deals with T4, human Fcγ receptor hFcgRIIa (R) (human, UniProt P12318 36-217).
T4 construct: also called FcγRIIa (type R); FcγIIA
T4 chain: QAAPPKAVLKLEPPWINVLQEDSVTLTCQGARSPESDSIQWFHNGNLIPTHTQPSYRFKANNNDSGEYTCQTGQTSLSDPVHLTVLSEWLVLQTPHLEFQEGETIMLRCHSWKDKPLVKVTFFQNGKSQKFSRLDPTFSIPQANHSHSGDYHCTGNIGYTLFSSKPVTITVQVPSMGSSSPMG
On the procedure:
as §1, §2

In assay [5] the target is T5, human Fcγ receptor hFcgRIIb (human, UniProt P31994 43-217, limits assumed).
T5 construct: Construct used in the SPR assay is not described; also called FcγRIIb; FcγIIB
T5 sequence: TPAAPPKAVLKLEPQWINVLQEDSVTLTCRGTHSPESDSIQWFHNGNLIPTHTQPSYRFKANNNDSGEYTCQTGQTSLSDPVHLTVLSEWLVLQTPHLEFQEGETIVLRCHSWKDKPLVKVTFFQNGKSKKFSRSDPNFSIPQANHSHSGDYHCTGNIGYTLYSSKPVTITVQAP
On the procedure:
as §1, §2

Assay [6] concerns the target T1, human Fcγ receptor hFcgRIIIa (V). The method, then: (§3) Furthermore, binding ability to hFcgRs was measured by the method described in Reference Example 3.
as §2
This is another data set of the same source.

For assay [7], the target named is T2, human Fcγ receptor hFcgRIIa (H). The method, then: as §3, §2
This is another data set of the same source.

The target of assay [8] is T3, human Fcγ receptor hFcgRIa. The method, then: as §3, §2
The source holds these as a separate data set.

Assay [9] addresses T4, human Fcγ receptor hFcgRIIa (R). The method, then: as §3, §2
Assay [10] concerns the target T5, human Fcγ receptor hFcgRIIb. On the procedure: as §3, §2
The source holds these as a separate data set.

T3 sequence (P12314 16-292 limits assumed): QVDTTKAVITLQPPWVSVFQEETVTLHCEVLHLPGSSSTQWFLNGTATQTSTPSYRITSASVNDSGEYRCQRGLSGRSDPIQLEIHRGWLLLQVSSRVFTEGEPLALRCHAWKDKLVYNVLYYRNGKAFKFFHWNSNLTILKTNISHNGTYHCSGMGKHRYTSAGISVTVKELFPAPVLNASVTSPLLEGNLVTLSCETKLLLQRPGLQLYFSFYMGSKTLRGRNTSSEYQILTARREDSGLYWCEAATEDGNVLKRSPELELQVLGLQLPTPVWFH
T1 sequence (P08637 other isoform, or with tags, fused parts or gaps limits assumed): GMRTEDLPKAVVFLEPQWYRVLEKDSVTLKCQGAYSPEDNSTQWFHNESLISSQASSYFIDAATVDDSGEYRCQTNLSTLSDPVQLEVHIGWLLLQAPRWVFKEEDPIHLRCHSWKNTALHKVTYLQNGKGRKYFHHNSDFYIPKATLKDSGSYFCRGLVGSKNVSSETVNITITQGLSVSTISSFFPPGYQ

B1: TS2 (antibody)
heavy: QVQLQESGPGLVRPSQTLSLTCTVSGYSITSDHAWSWVRQPPGRGLEWIGYISYSGITTYNPSLKSRVTMLRDTSKNQFSLRLSSVTAADTAVYYCARSLARTTAMDYWGQGSLVTVSSASTKGPSVFPLAPSSKSTSGGTAALGCLVKDYFPEPVTVSWNSGALTSGVHTFPAVLQSSGLYSLSSVVTVPSSSLGTQTYICNVNHKPSNTKVDKKVEPKSCDKTHTCPPCPAPELLGGPSVFLFPPKPKDTLMISRTPEVTCVVVDISQDEPEVKFNWYVDGVEVHNAKTKPREEQYNSTYRVVSVLTVLHQDWLNGKEYKCKVSNKALPAPIEKTISKAKGQPREPQVYTLPPSRDELTKNQVSLTCLVKGFYPSDIAVEWESNGQPENNYKTTPPVLDSDGSFFLYSKLTVDKSRWQQGNVFSCSVMHEALHNHYTQKSLSLSP
light: not shown
notes: anti-IL6R IgG1, G1d with V266I/H268Q/E269D/D270E (EU); also called TS02
As to B1, the “binding relative to G1 (=100)” value in assay [1] was 130; in [2], 123; in assay [3], 98.3; in assay [4] it was 67.3; in assay [5], 61.6.

B2: TS61 (antibody)
heavy: QVQLQESGPGLVRPSQTLSLTCTVSGYSITSDHAWSWVRQPPGRGLEWIGYISYSGITTYNPSLKSRVTMLRDTSKNQFSLRLSSVTAADTAVYYCARSLARTTAMDYWGQGSLVTVSSASTKGPSVFPLAPSSKSTSGGTAALGCLVKDYFPEPVTVSWNSGALTSGVHTFPAVLQSSGLYSLSSVVTVPSSSLGTQTYICNVNHKPSNTKVDKKVEPKSCDKTHTCPPCPAPELLGGPSVFLFPPKPKDTLMISRTPEVTCVVVDVSHEDPEVKFNWYVDGVEVHNAKTKPREEQYNSTYRVVSVLTVLHQDWLNGKEYKCKVSNKALPAPIEKTISKAKGQPREPQVYTLPPSRDELTKNQVSLTCLVKGFYPSDIAVEWESNDPPESNYKTTPPVLDSDGSFFLYSKLTVDKSRWQQGNVFSCSVMHEALHNHYTQKSLSLSP
light: not shown
notes: anti-IL6R IgG1, G1d with G385D/Q386P/N389S (EU)
Consider B2, for which the “binding relative to G1 (=100)” value in [6] was 96.6; in assay [7], 106; in assay [8], 101; in assay [9], 106; in [10] it was 112.

B3: TS42 (antibody)
heavy: QVQLQESGPGLVRPSQTLSLTCTVSGYSITSDHAWSWVRQPPGRGLEWIGYISYSGITTYNPSLKSRVTMLRDTSKNQFSLRLSSVTAADTAVYYCARSLARTTAMDYWGQGSLVTVSSASTKGPSVFPLAPSSKSTSGGTAALGCLVKDYFPEPVTVSWNSGALTSGVHTFPAVLQSSGLYSLSSVVTVPSSSLGTQTYICNVNHKPSNTKVDKKVEPKSCDKTHTCPPCPAPEKRGGPSVFLFPPKPKDTLMISRTPEVTCVVVDVSHEDPEVKFNWYVDGVEVHNAKTKPREEMGNGTYRVVSVLTVLHQDWLNGKEYKCKVSGKALPAPIEKTISKAKGQPREPQVYTLPPSRDELTKNQVSLTCLVKGFYPSDIAVEWESNGQPENNYKTTPPVLDSDGSFFLYSKLTVDKSRWQQGNVFSCSVMHEALHNHYTQKSLSLSP
light: not shown
notes: anti-IL6R IgG1, G1d with L234K/L235R/Q295M/Y296G/S298G/N325G (EU)
In the case of B3, the “binding relative to G1 (=100)” value was 1.3 in [6]; 1.6 in assay [7]; -0.2 in assay [8]; 1.3 in assay [9]; 6.9 in [10].

B4: TS7 (antibody)
heavy: QVQLQESGPGLVRPSQTLSLTCTVSGYSITSDHAWSWVRQPPGRGLEWIGYISYSGITTYNPSLKSRVTMLRDTSKNQFSLRLSSVTAADTAVYYCARSLARTTAMDYWGQGSLVTVSSASTKGPSVFPLAPSSKSTSGGTAALGCLVKDYFPEPVTVSWNSGALTSGVHTFPAVLQSSGLYSLSSVVTVPSSSLGTQTYICNVNHKPSNTKVDKKVEPKSCDKTHTCPPCPAPELLGGPSVFLFPPKPKDTLMISRTPEVTCVVVDVSHEDPEVKFNWYVDGVEVHNAKTKPREEQYNSTYRVVSVLTVLHQDWLNGKEYKCKVHNSALPHPIEKTISKAKGQPREPQVYTLPPSRDELTKNQVSLTCLVKGFYPSDIAVEWESNGQPENNYKTTPPVLDSDGSFFLYSKLTVDKSRWQQGNVFSCSVMHEALHNHYTQKSLSLSP
light: not shown
notes: anti-IL6R IgG1, G1d with K326S/S324H/A330H (EU); also called TS07
For B4, the “binding relative to G1 (=100)” value in assay [1] worked out at 86.2; in [3] it was 99.8; in assay [4], 117; in [5], 126.

B5: TS43 (antibody)
heavy: QVQLQESGPGLVRPSQTLSLTCTVSGYSITSDHAWSWVRQPPGRGLEWIGYISYSGITTYNPSLKSRVTMLRDTSKNQFSLRLSSVTAADTAVYYCARSLARTTAMDYWGQGSLVTVSSASTKGPSVFPLAPSSKSTSGGTAALGCLVKDYFPEPVTVSWNSGALTSGVHTFPAVLQSSGLYSLSSVVTVPSSSLGTQTYICNVNHKPSNTKVDKKVEPKSCDKTHTCPPCPAPEKRGGPSVFLFPPKPKDTLMISRTPEVTCVVVDVSHEDPEVKFNWYVDGVEVHNAKTKPREEMGNGTYRVVSVLTVLHQDWLNGKEYKCKVSHKALPAPIEKTISKAKGQPREPQVYTLPPSRDELTKNQVSLTCLVKGFYPSDIAVEWESNGQPENNYKTTPPVLDSDGSFFLYSKLTVDKSRWQQGNVFSCSVMHEALHNHYTQKSLSLSP
light: not shown
notes: anti-IL6R IgG1, G1d with L234K/L235R/Q295M/Y296G/S298G/N325H (EU)
As to B5, the “binding relative to G1 (=100)” value in assay [6] is 1.1; in assay [7], -0.1; in [8] it was -0.9; in assay [9] it was 1.7; in assay [10], 6.2.

B6: TS40 (antibody)
heavy: QVQLQESGPGLVRPSQTLSLTCTVSGYSITSDHAWSWVRQPPGRGLEWIGYISYSGITTYNPSLKSRVTMLRDTSKNQFSLRLSSVTAADTAVYYCARSLARTTAMDYWGQGSLVTVSSASTKGPSVFPLAPSSKSTSGGTAALGCLVKDYFPEPVTVSWNSGALTSGVHTFPAVLQSSGLYSLSSVVTVPSSSLGTQTYICNVNHKPSNTKVDKKVEPKSCDKTHTCPPCPAPEKRGGPSVFLFPPKPKDTLMISRTPEVTCVVVDVSKEFPEVKFNWYVDGVEVHNAKTKPREEMGNGTYRVVSVLTVLHQDWLNGKEYKCKVSGKALPAPIEKTISKAKGQPREPQVYTLPPSRDELTKNQVSLTCLVKGFYPSDIAVEWESNGQPENNYKTTPPVLDSDGSFFLYSKLTVDKSRWQQGNVFSCSVMHEALHNHYTQKSLSLSP
light: not shown
notes: anti-IL6R IgG1, G1d with L234K/L235R/H268K/D270F/Q295M/Y296G/S298G/N325G (EU)
In the case of B6, the “binding relative to G1 (=100)” value was 1 in [6]; 0.7 in assay [7]; -1.8 in assay [8]; 1.2 in assay [9]; 0.3 in assay [10].

B7: TS41 (antibody)
heavy: QVQLQESGPGLVRPSQTLSLTCTVSGYSITSDHAWSWVRQPPGRGLEWIGYISYSGITTYNPSLKSRVTMLRDTSKNQFSLRLSSVTAADTAVYYCARSLARTTAMDYWGQGSLVTVSSASTKGPSVFPLAPSSKSTSGGTAALGCLVKDYFPEPVTVSWNSGALTSGVHTFPAVLQSSGLYSLSSVVTVPSSSLGTQTYICNVNHKPSNTKVDKKVEPKSCDKTHTCPPCPAPEKRGGPSVFLFPPKPKDTLMISRTPEVTCVVVDVSKEFPEVKFNWYVDGVEVHNAKTKPREEMGNGTYRVVSVLTVLHQDWLNGKEYKCKVSHKALPAPIEKTISKAKGQPREPQVYTLPPSRDELTKNQVSLTCLVKGFYPSDIAVEWESNGQPENNYKTTPPVLDSDGSFFLYSKLTVDKSRWQQGNVFSCSVMHEALHNHYTQKSLSLSP
light: not shown
notes: anti-IL6R IgG1, G1d with L234K/L235R/H268K/D270F/Q295M/Y296G/S298G/N325H (EU)
On to B7, for which the “binding relative to G1 (=100)” value in assay [6] amounted to 1; in [7], 1.4; in [8] it was 0.2; in assay [9], 1.2; in [10] it was 4.2.
